The test system of data set [1] is V-HaRas transformed NIH/3T3 cells. Nature of the data set: soft agar colony (SAC) formation by V-HaRas transformed NIH/3T3 cells transfected with NF1 fragment plasmids. It counts as cell-based. Particulars: for SAC (%), relative soft agar colony forming ability: non-transfected clone #0 = 100; for Colonies/10^3 cells (number of colonies found in soft agar): 1000 cells per plate, 37° C., three weeks; for ability to form soft agar colonies (in words): compared with non-transfected parental V-HaRas transformed cells. The protocol:
The transfectants were then cloned in the presence of a neomycin analogue, i.e., G418 at 400 ug/ml. The transfectants were initially screened for viability in the G418 medium, following Maruta et al., supra., and Nur-E.-Kamal et al., supra.
After the transfectants were screened for viability, the ability of the parental clone and each surviving transfectant to form soft agar colonies (SAC) were then examined by incubating 1000 cells per plate at 37° C. for three weeks under standard culture conditions, as described in Maruta et al., supra.

In the next data set the test system is c-HaRas protein. As to the kind of experiment: Ras GTPase stimulating activity: hydrolysis of [gamma-32P] GTP bound to c-HaRas protein, by GST fusion NF1 mutants. It counts as biochemical, murine. The following applies: for Activation (fold), Ras GTPase activation: 20 ug/ml NF1 mutants; for Activation (fold), Ras GTPase activation / EC50, concentration required for 50% hydrolysis of GTP bound Ras: 25° C., 20 minutes. From the text: N- and C- terminal deletion mutants were constructed by subcloning the corresponding PCR DNA fragments into the bacterial expression vector pGEX-2TH, as described in Maruta et al., supra. FIG. 4 sets forth the DNA fragments inserted into the expression vector. The number following NF of each mutant indicates the total amino acid residues included. The DNA fragments inserted include the DNA for human type I NF357, human type II NF1-GRD (amino acid residues 1355 to 1531 in addition to the insert of 21 amino acids) and murine c-HaRas (residues 1-189). The type II-specific insert of 21 amino acids is indicated by the number 21 above a triangle following codon 1371. This 21 amino acid insert is set forth in SEQ ID NO: 2. The solid rectangle indicates the GAP active center of 56 amino acids, whereas the shaded rectangle indicates a supporting domain of 22 amino acids.
The expression vectors were transfected into E.coli and the protein expressed as GST fusion proteins. The fusion proteins were thereafter purified from E.coli as glutathione S-transfeRase fusion proteins and affinity-purified on a glutathione (GSH)-agarose column, as described in Maruta, et al., supra.
The purified proteins were then screened for Ras GTPase stimulating activity. The assay was carried out for each of the NF357 deletion mutants.
The hydrolysis of [gamma-^32 P] GTP bound to c-HaRas protein was determined by incubating with bound protein at 25° C. for 20 minutes in the presence or absence of each NF1 mutant preparation in 100 ul of a buffer containing 50 mMTris-HCl, pH 7.5, 15 mMMgCl2, 2.5 mM EDTA, 3 mM ATP, 1 mM dithiothreitol (DTT) and 0.5 mg/ml bovine serum albumin (BSA), then precipitating the unhydrolyzed [gamma-32P] GTP with charcoal, and finally measuring the radioactivity of the [gamma-32P] inorganic phosphate in the supernatant, as described previously, Maruta et al., supra. Protein concentrations were determined by the Bradford method with BSA as a standard.

The test system of data set [2] is V-HaRas transformed NIH/3T3 cells. Nature of the data set: morphology of V-HaRas transformed NIH/3T3 cells overexpressing NF1 fragments. It counts as cell-based. The following applies: liquid culture, compared with parental V-HaRas transformed cells.
Where [3] appears, read: clone #8, relatively low (L) steady-state mRNA level.
Setting [4] is: clones with relatively high (H) mRNA level.
Where [5] appears, read: clones with relatively high (H) steady-state mRNA level.

“Also recorded” adds a separate entry of the source.

In the case of “NF56: NF1 fragment, amino acid residues 1441 to 1496 (RPFNDFVKSNFDAARRFFLDIASDCPTSDAVNHSLSFISDGNVLALHRLLWNNQEK)”, the “reversion of activated Ras induced transformation (in words)” value in data set [1] (expression of the fragment in transformed cells) is given as “leads to reversion of activated Ras induced transformation; also recorded: capable of reversing Ras transformation”. Further, in the data set on c-HaRas protein, the “Ras GTPase stimulation (in words)” value is on record as “no longer able to stimulate Ras GTPase activity; also recorded: cannot stimulate; also recorded: does not stimulate GTPase activity; also recorded: not capable of GTPase activation” and the “Activation (fold), Ras GTPase activation” value is 0 fold.

B1: NF338: NF1 protein fragment, amino acid residues 1194 to 1531, expressed from retroviral vector pMV7 (protein)
chain: DTLAETVLADRFERLVELVTMMGDQGELPIAMALANVVPCSQWDELARVLVTLFDSRHLLYQLLWNMFSKEVELADSMQTLFRGNSLASKIMTFCFKVYGATYLQKLLDPLLRIVITSSDWQHVSFEVDPTRLEPSESLEENQRNLLQMTEKFFHAIISSSSEFPPQLRSVCHCLYQVVSQRFPQNSIGAVGSAMFLRFINPAIVSPYEAGILDKKPPPRIERGLKLMSKILQSIANHVLFTKEEHMRPFNDFVKSNFDAARRFFLDIASDCPTSDAVNHSLSFISDGNVLALHRLLWNNQEKIGQYLSSNRDHKAVGRRPFDKMATLLAYLGPPEHK
B1: the “SAC (%), relative soft agar colony forming ability” value in data set [1] (clone #8, relatively low (L) mRNA level) worked out at 5%; in data set [1] (setting [4]) it was 0.4%. Further, the “average size of the soft agar colony” value in data set [1] (setting [3]) is listed as “medium”. Besides, the “Colonies/10^3 cells (number of colonies found in soft agar)” value in data set [1] (setting [3]) turned out to be 37 Colonies/10^3 cells; in data set [1] (setting [5]), 3 Colonies/10^3 cells. The “ability to form soft agar colonies (in words)” value in data set [1] was “greatly reduced”. For the same molecule, the cell morphology result in data set [2] was “differed significantly”.

B2: NF 327: NF1 fragment, residues 1205-1531 (protein, UniProt P21359 1205-1531, looked up, fragment)
chain: FERLVELVTMMGDQGELPIAMALANVVPCSQWDELARVLVTLFDSRHLLYQLLWNMFSKEVELADSMQTLFRGNSLASKIMTFCFKVYGATYLQKLLDPLLRIVITSSDWQHVSFEVDPTRLEPSESLEENQRNLLQMTEKFFHAIISSSSEFPPQLRSVCHCLYQATCHSLLNKATVKEKKENKKSVVSQRFPQNSIGAVGSAMFLRFINPAIVSPYEAGILDKKPPPRIERGLKLMSKILQSIANHVLFTKEEHMRPFNDFVKSNFDAARRFFLDIASDCPTSDAVNHSLSFISDGNVLALHRLLWNNQEKIGQYLSSNRDHKAV
Turning to B2, in the data set on c-HaRas protein, the “Activation (fold), Ras GTPase activation” value came to 14 fold and the “EC50, concentration required for 50% hydrolysis of GTP bound Ras” value (“EC50 … for 50% hydrolysis of GTP bound Ras” below) worked out at 0.40 µg/mL.

B3: NF 342: NF1 fragment, residues 1190-1531 (protein, UniProt P21359 1190-1531, looked up, fragment)
chain: GTEFDTLAETVLADRFERLVELVTMMGDQGELPIAMALANVVPCSQWDELARVLVTLFDSRHLLYQLLWNMFSKEVELADSMQTLFRGNSLASKIMTFCFKVYGATYLQKLLDPLLRIVITSSDWQHVSFEVDPTRLEPSESLEENQRNLLQMTEKFFHAIISSSSEFPPQLRSVCHCLYQATCHSLLNKATVKEKKENKKSVVSQRFPQNSIGAVGSAMFLRFINPAIVSPYEAGILDKKPPPRIERGLKLMSKILQSIANHVLFTKEEHMRPFNDFVKSNFDAARRFFLDIASDCPTSDAVNHSLSFISDGNVLALHRLLWNNQEKIGQYLSSNRDHKAV
With B3, in the data set on c-HaRas protein, the “Activation (fold), Ras GTPase activation” value is reported as 14 fold and the “EC50 … for 50% hydrolysis of GTP bound Ras” value was found to be 0.52 µg/mL.

B4: NF 326: NF1 fragment, residues 1206-1531 (protein, UniProt P21359 1206-1531, looked up, fragment)
chain: ERLVELVTMMGDQGELPIAMALANVVPCSQWDELARVLVTLFDSRHLLYQLLWNMFSKEVELADSMQTLFRGNSLASKIMTFCFKVYGATYLQKLLDPLLRIVITSSDWQHVSFEVDPTRLEPSESLEENQRNLLQMTEKFFHAIISSSSEFPPQLRSVCHCLYQATCHSLLNKATVKEKKENKKSVVSQRFPQNSIGAVGSAMFLRFINPAIVSPYEAGILDKKPPPRIERGLKLMSKILQSIANHVLFTKEEHMRPFNDFVKSNFDAARRFFLDIASDCPTSDAVNHSLSFISDGNVLALHRLLWNNQEKIGQYLSSNRDHKAV
As for B4, in the data set with c-HaRas protein, the “Activation (fold), Ras GTPase activation” value was 11 fold and the “EC50 … for 50% hydrolysis of GTP bound Ras” value was 1.5 µg/mL.

B5: NF357: NF1 fragment, amino acid residues 1175-1531 of human type I neurofibromin (protein, UniProt P21359 1175-1531, looked up, fragment)
chain: TRATFMEVLTKILQQGTEFDTLAETVLADRFERLVELVTMMGDQGELPIAMALANVVPCSQWDELARVLVTLFDSRHLLYQLLWNMFSKEVELADSMQTLFRGNSLASKIMTFCFKVYGATYLQKLLDPLLRIVITSSDWQHVSFEVDPTRLEPSESLEENQRNLLQMTEKFFHAIISSSSEFPPQLRSVCHCLYQATCHSLLNKATVKEKKENKKSVVSQRFPQNSIGAVGSAMFLRFINPAIVSPYEAGILDKKPPPRIERGLKLMSKILQSIANHVLFTKEEHMRPFNDFVKSNFDAARRFFLDIASDCPTSDAVNHSLSFISDGNVLALHRLLWNNQEKIGQYLSSNRDHKAV
Regarding B5, in the data set with c-HaRas protein, the “GTPase activity, times more active than NF91” value is on record as “twenty”; the “Activation (fold), Ras GTPase activation” value is given as 14 fold; the “EC50 … for 50% hydrolysis of GTP bound Ras” value came out at 0.50 µg/mL.

B6: NF91: NF1 fragment, amino acid residues 1441 to 1531; GST fusion in Table II, expressed from pMV7 plasmid in cells (protein, UniProt P21359 1441-1531, looked up, fragment)
chain: LMSKILQSIANHVLFTKEEHMRPFNDFVKSNFDAARRFFLDIASDCPTSDAVNHSLSFISDGNVLALHRLLWNNQEKIGQYLSSNRDHKAV
modifications: GST fusion
Consider B6, for which the “SAC (%), relative soft agar colony forming ability” value in data set [1] (setting [4]) came to 0%. Also, the “Colonies/10^3 cells (number of colonies found in soft agar)” value in data set [1] (setting [5]) was determined as 0 Colonies/10^3 cells. In data set [1], the “ability to form soft agar colonies (in words)” value is given as “no longer able to form any soft agar colonies”. In the data set on c-HaRas protein, the “Ras GTPase stimulation (in words)” value is given as “still stimulated Ras GTPase activity; also recorded: still able to stimulate normal Ras GTPase activity”; the “efficiency of Ras GTPase stimulation, times less efficient compared to NF342 / NF357” value is listed as “twenty”; the “Activation (fold), Ras GTPase activation” value was 10 fold; the “EC50 … for 50% hydrolysis of GTP bound Ras” value is 10 µg/mL. In data set [2], the cell morphology result is given as “morphologically flat”. In addition, the cell morphology result in data set [2] (listed as NF91 (Sense)) is reported as “Flat”.

B7: NF 266: NF1 fragment, residues 1175-1440 (protein, UniProt P21359 1175-1440, looked up, fragment)
chain: TRATFMEVLTKILQQGTEFDTLAETVLADRFERLVELVTMMGDQGELPIAMALANVVPCSQWDELARVLVTLFDSRHLLYQLLWNMFSKEVELADSMQTLFRGNSLASKIMTFCFKVYGATYLQKLLDPLLRIVITSSDWQHVSFEVDPTRLEPSESLEENQRNLLQMTEKFFHAIISSSSEFPPQLRSVCHCLYQATCHSLLNKATVKEKKENKKSVVSQRFPQNSIGAVGSAMFLRFINPAIVSPYEAGILDKKPPPRIERGLK
For B7, in the data set with c-HaRas protein, the “Activation (fold), Ras GTPase activation” value stood at 0 fold.

B8: NF 80: NF1 fragment, residues 1452-1531 (protein, UniProt P21359 1452-1531, looked up, fragment)
chain: HVLFTKEEHMRPFNDFVKSNFDAARRFFLDIASDCPTSDAVNHSLSFISDGNVLALHRLLWNNQEKIGQYLSSNRDHKAV
With B8, the “Activation (fold), Ras GTPase activation” value in the data set on c-HaRas protein is given as 0 fold.

B9: NF 292: NF1 fragment, residues 1205-1496 (protein, UniProt P21359 1205-1496, looked up, fragment)
chain: FERLVELVTMMGDQGELPIAMALANVVPCSQWDELARVLVTLFDSRHLLYQLLWNMFSKEVELADSMQTLFRGNSLASKIMTFCFKVYGATYLQKLLDPLLRIVITSSDWQHVSFEVDPTRLEPSESLEENQRNLLQMTEKFFHAIISSSSEFPPQLRSVCHCLYQATCHSLLNKATVKEKKENKKSVVSQRFPQNSIGAVGSAMFLRFINPAIVSPYEAGILDKKPPPRIERGLKLMSKILQSIANHVLFTKEEHMRPFNDFVKSNFDAARRFFLDIASDCPTSDAVNHSL
In the case of B9, in the data set on c-HaRas protein, the “Ras GTPase stimulation (in words)” value is listed as “stimulate normal Ras GTPase activity”; the “Activation (fold), Ras GTPase activation” value worked out at 11 fold; the “EC50 … for 50% hydrolysis of GTP bound Ras” value was 7.5 µg/mL.
